Where a chain is given by its changes, count along the chain named. Names and notes keep the numbering of the source.
B1: G91I MBP-4A-S1R (receptor, guinea pig, UniProt Q60492 1-223, looked up)
chain: MQWAVGRRWLWVALFLAAVAVLTQIVWLWLGTQNFVFQREEIAQLARQYAGLDHELAFSKLIVELRRLHPVHVLPDEELQWVFVNAGGWMIAMCLLHASLSEYVLLFGTALGSPRHSGRYWAEISDTIISGTFHQWREGTTKSEVFYPGETVVHGPGEATAVEWGPNTWMVEYGRGVIPSTLGFALADTVFSTQDFLTLFYTLRVYARALQLELTTYLFGQDP
notes: sigma-1 receptor (S1R), guinea pig, 223 amino acids, as m1 with G91I; also called G91I mutation; not shown: MBP with 4-Ala linker, N-terminal, kept
B2: G91L MBP-4A-S1R (receptor, guinea pig, UniProt Q60492 1-223, looked up)
chain: B1 chain with I91L
notes: sigma-1 receptor (S1R), guinea pig, 223 amino acids, as m1 with G91L; also called G91L mutation; not shown: MBP with 4-Ala linker, N-terminal, kept
B3: G88L MBP-4A-S1R (receptor, guinea pig, UniProt Q60492 1-223, looked up)
chain: B1 chain with G88L, I91G
notes: sigma-1 receptor (S1R), guinea pig, 223 amino acids, as m1 with G88L; Named only as one of the substitutions of Ile or Leu at Gly-87, Gly-88 and Gly-91; also called substitution of Leu at Gly-88; not shown: MBP with 4-Ala linker, N-terminal, kept
B4: MBP-4A-S1R (guinea pig sigma-1 receptor fused to maltose-binding protein through a 4-Ala linker) (receptor, UniProt Q60492 1-223, looked up)
chain: B1 chain with I91G
notes: sigma-1 receptor (S1R), guinea pig, 223 amino acids; In detergent micelles (DDM); One preparation separates into a 6-8-mer, a tetramer and a monomer; also called nonmutated receptor; nonmutated fusion protein; source: preparative size exclusion chromatography; not shown: MBP with 4-Ala linker, N-terminal, kept
B5: G88I MBP-4A-S1R (receptor, guinea pig, UniProt Q60492 1-223, looked up)
chain: B1 chain with G88I, I91G
notes: sigma-1 receptor (S1R), guinea pig, 223 amino acids, as m1 with G88I; Named only as one of the substitutions of Ile or Leu at Gly-87, Gly-88 and Gly-91; also called substitution of Ile at Gly-88; not shown: MBP with 4-Ala linker, N-terminal, kept
B6: H97A MBP-4A-S1R (receptor, guinea pig, UniProt Q60492 1-223, looked up)
chain: B1 chain with I91G, H97A
notes: sigma-1 receptor (S1R), guinea pig, 223 amino acids, as m1 with H97A; also called mutation H97A; not shown: MBP with 4-Ala linker, N-terminal, kept

Assays:
[1] = target: the molecule itself; assay: SEC; analytical size exclusion chromatography, Yarra SEC-3000, 10 mM HEPES pH 7.2, 150 mM NaCl, 0.3 mM TCEP, 0.018% DDM, column at 20 °C; self-association in protein-detergent micelles
[2] = target: the molecule itself; assay: cross-linking; DSS (150 or 250 μM) on 5 μM isolated peak 1 (oligomer) of MBP-4A-S1R, 2 h at room temperature, with or without 10 μM BD-1047; SDS-PAGE
[3] = target: the molecule itself; assay: SEC-MALS; isolated peak 1 (largest oligomer) of MBP-4A-S1R; Superdex S200, 150 mM NaCl, 5 mM HEPES pH 7.2, 0.018% DDM
[4] = target: the molecule itself; assay: SEC-MALS; isolated intermediate oligomer (peak *) of MBP-4A-S1R; Superdex S200, 150 mM NaCl, 5 mM HEPES pH 7.2, 0.018% DDM

Row | Protein | stoichiometry N [1] | binding result [1] | also measured
1 | B1 | ~2 | – | –
2 | B2 | ~4 | – | –
3 | B3 | – | binds | –
4 | B4 | – | – | stoichiometry N [2]: > 4; stoichiometry N [3]: 6 to 8; stoichiometry N [4]: 4
5 | B5 | – | binds | –
6 | B6 | – | binds | –
